# According to paper PMC3081313, “Factors Defining the Functional Oligomeric State of Escherichia coli DegP Protease” (PLoS ONE, 2011):
# B1: proteolytically inactive DegP_(S210A) (enzyme, Escherichia coli, UniProt P0C0V0 27-474, looked up)
# chain: AETSSATTAQQMPSLAPMLEKVMPSVVSINVEGSTTVNTPRMPRNFQQFFGDDSPFCQEGSPFQSSPFCQGGQGGNGGGQQQKFMALGSGVIIDADKGYVVTNNHVVDNATVIKVQLSDGRKFDAKMVGKDPRSDIALIQIQNPKNLTAIKMADSDALRVGDYTVAIGNPFGLGETVTSGIVSALGRSGLNAENYENFIQTDAAINRGNAGGALVNLNGELIGINTAILAPDGGNIGIGFAIPSNMVKNLTSQMVEYGQVKRGELGIMGTELNSELAKAMKVDAQRGAFVSQVLPNSSAAKAGIKAGDVITSLNGKPISSFAALRAQVGTMPVGSKLTLGLLRDGKQVNVNLELQQSSQNQVDSSSIFNGIEGAEMSNKGKDQGVVVNNVKTGTPAAQIGLKKGDVIIGANQQAVKNIAELRKVLDSKPSVLALNIQRGDSTIYLLMQ
# notes: Escherichia coli DegP (HtrA, protease Do), periplasmic protease and chaperone, with the active-site change S210A; Number of copies depends on the sample: hexamer alone, 12-mer or 24-mer with substrate; also called HtrA_(S210A); DegP6
# Experiments:
# [1] = target: the molecule itself; test: SEC; DegP_(S210A) (42 µM) mixed with full-length β-casein (42 µM; also in molar excess), 37°C 10 min in 50 mM HEPES pH 7.3; Superdex 200 in 50 mM HEPES pH 7.3, 150 mM NaCl at 4°C; peak fractions on SDS-PAGE
# [2] = target: the molecule itself; test: SEC; DegP_(S210A) mixed with MDH peptide fragments, 37°C 10 min; Superdex 200 in 50 mM HEPES pH 7.3, 150 mM NaCl at 4°C
# [3] = target: the molecule itself; test: SEC; DegP_(S210A) alone (42 µM monomer), incubated in 50 mM HEPES pH 7.3 at 37°C for 10 min; Superdex 200 10/300 GL in 50 mM HEPES pH 7.3, 150 mM NaCl at 4°C
# [4] = target: B1; test: SEC; DegP_(S210A) (94 µM) mixed with P^+Z^+ peptide (376 µM), 37°C 10 min; Superdex 200 in 50 mM HEPES pH 7.3, 150 mM NaCl at 4°C; settings: both partners purified
# [5] = target: B1; test: SEC; DegP_(S210A) (94 µM) mixed with P^−Z^+ peptide (376 µM), 37°C 10 min; Superdex 200 in 50 mM HEPES pH 7.3, 150 mM NaCl at 4°C; settings: both partners purified
binder,measurement,setting,value
B1,stoichiometry N,[1],24
same,stoichiometry N,[2],12
same,stoichiometry N,[3],6
ALVLDMMYGGMRGYQV (also called PepP^+Z^+; source: synthetic peptide (GenScript USA Inc.)) [PZ model peptide P^+Z^+],binding result,[4],binds
ALELDMMYGGMRGYQV (as P^+Z^+ but the P motif altered from ALV to ALE; source: synthetic peptide (GenScript USA Inc.)) [PZ model peptide P^−Z^+],binding result,[5],binds
